Laboratory results as given in patent US20170002081A1 (TRANSGENE S A, published 2017).
Where a chain is given by its changes, count along the chain named.

Experiments:
EGFR:Fc = target: T1, EGFR:Fc (human, UniProt P00533 25-645); assay: Western blot, native conditions, 100 ng soluble receptor
T1 construct: also called soluble form of the EGFR fused to human IgG1 Fc (R&D Systems); Soluble EGFR; not shown: human IgG1 Fc
Text: A soluble form of the EGFR fused to human IgG₁ Fc (R&D Systems) was used as a negative control.

[1] = target: T2, human CSF-1R, full length, on cells (human, UniProt P07333 20-972); assay: displacement of 1.5 nM ^125I-H27K15 (competitor) on EL4-CSF-1R cells, Cheng-Prusoff
T2 construct: also called cell-surface CSF-1R; B4-800-5 cells

[2] = target: T2, human CSF-1R, full length, on cells; assay: displacement of 1.5 nM ^125I-H27K15 (competitor) on EL4-CSF-1R cells
[3] = target: T3, VEGFR1-Fc-6×his (R&D Systems cat. 321-FL-050) (human, UniProt P17948 27-758, limits assumed); assay: ELISA, 300 ng coated receptor per well
T3 construct: extracellular domain; Bought; also called soluble VEGFR-1
T3 sequence (P17948 27-758 limits assumed): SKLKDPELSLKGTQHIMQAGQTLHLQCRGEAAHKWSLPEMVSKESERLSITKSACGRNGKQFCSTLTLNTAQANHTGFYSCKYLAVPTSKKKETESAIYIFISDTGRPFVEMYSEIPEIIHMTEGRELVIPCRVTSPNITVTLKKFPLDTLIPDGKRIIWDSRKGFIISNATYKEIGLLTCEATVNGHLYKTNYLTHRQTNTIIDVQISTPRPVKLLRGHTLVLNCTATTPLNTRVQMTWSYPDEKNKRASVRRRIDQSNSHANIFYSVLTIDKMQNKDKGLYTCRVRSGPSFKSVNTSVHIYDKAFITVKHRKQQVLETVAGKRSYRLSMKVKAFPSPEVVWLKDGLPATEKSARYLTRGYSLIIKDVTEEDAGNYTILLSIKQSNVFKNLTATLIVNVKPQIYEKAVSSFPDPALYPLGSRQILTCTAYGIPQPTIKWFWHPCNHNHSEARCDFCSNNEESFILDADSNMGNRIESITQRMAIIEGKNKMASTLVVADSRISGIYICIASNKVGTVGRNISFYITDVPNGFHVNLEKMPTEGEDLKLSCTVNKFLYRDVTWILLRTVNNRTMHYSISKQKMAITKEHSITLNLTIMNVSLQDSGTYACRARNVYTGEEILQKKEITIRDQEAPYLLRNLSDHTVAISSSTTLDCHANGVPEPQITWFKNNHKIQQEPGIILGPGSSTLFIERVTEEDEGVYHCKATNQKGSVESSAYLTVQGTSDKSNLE
Method: (§1) 13382) was also incubated with wells coated with receptor-human Fc fusion proteins Flt-3-Fc-, PDGFRβ-Fc, VEGFR2-Fc, VEGFR1-Fc, while PDGFRα- and SCFR-coated wells were incubated with respectively anti-PDGF-Rα (mouse IgG1, R&Dsystems cat. MAB322) and anti-SCF-R goat IgG (R&DSystems cat. AF332). […] Following revelation with tetramethylbenzidine (Sigma, cat. T8665) (0.1 mg/ml in 0.05 M sodium acetate, 0.05 M citric acid, H₂O₂ 1/7000), absorbance was measured at 450 nm and corrected by subtraction of absorbance at 540 nm using a spectrophotometer (Berthold, Tristar LB941).

[4] = target: T4, Flt-3-Fc-6×his (R&D Systems cat. 368-ST/CF) (human, UniProt P36888 27-543, limits assumed); assay: ELISA, 300 ng coated receptor per well
T4 construct: extracellular domain; Bought; also called soluble Flt-3
Method: as §1

[5] = target: T5, human SCFR ECD (R&D Systems cat. 332-SR/CF) (human, UniProt P10721 26-524); assay: ELISA, 300 ng coated receptor per well
T5 construct: extracellular domain; Bought; also called SCFR (c-kit)
Method: as §1

[6] = target: T6, vascular endothelial growth factor receptor (VEGFR)2-Fc-6×his (R&D Systems cat. 357-KD/CF) (human, UniProt P35968 20-764, limits assumed); assay: ELISA, 300 ng coated receptor per well
T6 construct: extracellular domain; Bought; also called soluble VEGFR-2
T6 sequence (P35968 20-764 limits assumed): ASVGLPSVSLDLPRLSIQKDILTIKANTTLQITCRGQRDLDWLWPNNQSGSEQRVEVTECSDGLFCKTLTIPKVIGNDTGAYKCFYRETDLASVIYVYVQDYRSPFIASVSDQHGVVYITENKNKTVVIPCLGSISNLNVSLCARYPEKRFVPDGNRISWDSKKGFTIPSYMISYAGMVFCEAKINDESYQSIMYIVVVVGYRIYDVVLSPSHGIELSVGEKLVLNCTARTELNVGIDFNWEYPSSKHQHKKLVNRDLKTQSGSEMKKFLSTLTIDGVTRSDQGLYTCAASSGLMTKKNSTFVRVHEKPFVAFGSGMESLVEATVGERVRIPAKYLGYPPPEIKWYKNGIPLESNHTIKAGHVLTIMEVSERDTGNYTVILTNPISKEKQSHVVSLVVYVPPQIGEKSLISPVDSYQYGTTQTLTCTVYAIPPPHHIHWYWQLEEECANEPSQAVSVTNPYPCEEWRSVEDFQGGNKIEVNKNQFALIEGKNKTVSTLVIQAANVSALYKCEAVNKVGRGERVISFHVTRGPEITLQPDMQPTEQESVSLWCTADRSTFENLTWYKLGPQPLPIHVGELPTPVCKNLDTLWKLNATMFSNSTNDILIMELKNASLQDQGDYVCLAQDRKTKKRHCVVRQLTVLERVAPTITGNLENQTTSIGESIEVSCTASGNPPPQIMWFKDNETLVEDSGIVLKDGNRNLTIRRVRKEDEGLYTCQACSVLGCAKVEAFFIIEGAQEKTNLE
Method: as §1

[7] = target: T7, PDGFRα ECD (R&D Systems cat. 322-PR/CF) (UniProt P16234 24-528, limits assumed); assay: ELISA, 300 ng coated receptor per well
T7 construct: extracellular domain; Bought; also called soluble PDGFRα
T7 sequence (P16234 24-528 limits assumed): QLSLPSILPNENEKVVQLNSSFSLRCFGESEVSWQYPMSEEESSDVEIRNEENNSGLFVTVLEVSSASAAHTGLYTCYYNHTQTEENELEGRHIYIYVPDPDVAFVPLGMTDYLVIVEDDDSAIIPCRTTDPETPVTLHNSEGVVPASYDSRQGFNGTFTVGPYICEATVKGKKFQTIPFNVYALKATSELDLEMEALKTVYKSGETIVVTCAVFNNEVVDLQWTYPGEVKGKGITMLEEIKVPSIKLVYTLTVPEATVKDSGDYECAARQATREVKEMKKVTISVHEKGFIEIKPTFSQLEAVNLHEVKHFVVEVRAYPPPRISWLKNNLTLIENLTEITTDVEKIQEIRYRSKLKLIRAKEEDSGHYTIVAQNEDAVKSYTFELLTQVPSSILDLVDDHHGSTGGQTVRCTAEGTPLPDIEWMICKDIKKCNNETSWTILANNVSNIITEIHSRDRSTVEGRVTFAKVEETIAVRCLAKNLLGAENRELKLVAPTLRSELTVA
Method: as §1

[8] = target: T8, PDGFRβ-Fc-6×his (R&D Systems cat. 385-PR/CF) (human, UniProt P09619 33-532, limits assumed); assay: ELISA, 300 ng coated receptor per well
T8 construct: extracellular domain; Bought; also called soluble PDGFRβ
T8 sequence (P09619 33-532 limits assumed): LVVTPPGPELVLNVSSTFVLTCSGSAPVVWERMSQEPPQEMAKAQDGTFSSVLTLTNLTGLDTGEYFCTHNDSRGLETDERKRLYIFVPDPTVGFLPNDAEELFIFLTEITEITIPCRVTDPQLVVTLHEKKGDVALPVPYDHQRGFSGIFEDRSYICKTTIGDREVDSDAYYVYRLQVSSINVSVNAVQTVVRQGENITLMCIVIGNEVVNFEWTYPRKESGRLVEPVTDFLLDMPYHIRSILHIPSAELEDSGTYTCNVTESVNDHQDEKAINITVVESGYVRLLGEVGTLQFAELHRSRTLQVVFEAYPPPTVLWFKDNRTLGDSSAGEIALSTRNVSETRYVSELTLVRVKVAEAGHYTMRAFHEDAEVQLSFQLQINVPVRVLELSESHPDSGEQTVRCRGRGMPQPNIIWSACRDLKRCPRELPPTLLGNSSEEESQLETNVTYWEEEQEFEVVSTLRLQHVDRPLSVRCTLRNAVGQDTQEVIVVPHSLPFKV
Method: as §1

[9] = target: T9, construct pTG18000 (human and murine D1 subdomains combined, Histidine tag) (Homo sapiens (Human), UniProt P07333 21-298); assay: ELISA: His-tagged construct captured from CHO supernatant on anti-His tag coated wells; biotinylated antibody; streptavidin-HRP
T9 chain: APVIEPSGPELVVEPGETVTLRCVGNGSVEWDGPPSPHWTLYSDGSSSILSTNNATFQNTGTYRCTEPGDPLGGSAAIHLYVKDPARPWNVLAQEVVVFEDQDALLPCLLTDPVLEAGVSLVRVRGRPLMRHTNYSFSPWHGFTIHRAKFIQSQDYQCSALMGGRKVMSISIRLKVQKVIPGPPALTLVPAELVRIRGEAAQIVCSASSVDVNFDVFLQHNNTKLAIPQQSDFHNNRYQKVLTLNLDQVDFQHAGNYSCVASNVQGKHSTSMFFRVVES
Method: (§2) In order to map the mAb binding sites on CSF-1R, truncated mutants of human CSF-1R and chimeras between human and murine D1-D3 CSF-1R fused to Histidine tags were constructed (see FIGS. 19 and 20 for details). These constructs were expressed as secreted proteins using CHO cells. Expression of constructs was checked by immunoblot analysis using an anti-His tag antibody for detection. All constructs were captured on ELISA plate by incubating CHO culture supernatant into wells coated with an Anti-His tag antibody. Antibodies were biotinylated using Biotin-NHS (Sigma ref B3295-10 MG). Biotinylated antibodies were added to each well and binding was detected with streptavidin-HRP.

pTG17983 = target: T10, pTG17983; assay: as above
T10 construct: secreted by CHO cells; also called human D1-D2-D3 of CSF-1R, Histidine tag
T10 single secreted chain: T9 chain with A1I, G8V, E14K, E17A
Method: as §2

pTG18036 = target: T11, pTG18036; assay: as above
T11 construct: truncated mutant secreted by CHO cells; also called human D1 and D2 of CSF-1R, Histidine tag
T11 single secreted chain: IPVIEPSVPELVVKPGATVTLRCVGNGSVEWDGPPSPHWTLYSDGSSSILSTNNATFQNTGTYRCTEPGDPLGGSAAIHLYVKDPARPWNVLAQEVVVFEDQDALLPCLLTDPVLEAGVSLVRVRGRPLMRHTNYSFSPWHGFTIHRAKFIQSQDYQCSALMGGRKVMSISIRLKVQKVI
Method: as §2

[10] = target: T12, CSF-1R20-512-Fc (R&D Systems cat. 329-MR) (human, UniProt P07333 20-512); assay: ELISA: coated human CSF1 1-444 or PBS; Fc-D1-D5 human CSF-1R 0.125 µg/mL; anti-human IgG-Fc-HRP
T12 construct: Bought; also called CSF-1R1-512:Fc; soluble human CSF-1R; not shown: Fc region of a human IgG1

B1: mAb CXIIG6 (antibody, mouse IgG2a, kappa)
heavy: EVKLEESGGGLVQPGGSMKLSCAASGFTFSDAWMDWVRQSPEMGLEWVAEIRSKANNHATFYAESVKGRFTISRDDSKSSVYLQMNSLRPEDTGIYYCTRVKVGFDNWGQGTTLTVSSAKTTAPSVYPLAPVCGDTTGSSVTLGCLVKGYFPEPVTLTWNSGSLSSGVHTFPAVLQSDLYTLSSSVTVTSSTWPSQSITCNVAHPASSTKVDKKIEPRGPTIKPCPPCKCPAPNLLGGPSVFIFPPKIKDVLMISLSPIVTCVVVDVSEDDPDVQISWFVNNVEVHTAQTQTHREDYNSTLRVVSALPIQHQDWMSGKEFKCKVNNKDLPAPIERTISKPKGSVRAPQVYVLPPPEEEMTKKQVTLTCMVTDFMPEDIYVEWTNNGKTELNYKNTEPVLDSDGSYFMYSKLRVEKKNWVERNSYSCSVVHEGLHNHHTTKSFSRTPGK
light: DIQMTQSPASLSVSVGETVTITCRASENIYSNLAWYQQKQGKSPQLLVHAATNLADGVPSRFSGSGSGTQYSLKINSLQSEDFGSYYCQHFWGTPRTFGGGTKLEIKRADAAPTVSIFPPSSEQLTSGGASVVCFLNNFYPKDINVKWKIDGSERQNGVLNSWTDQDSKDSTYSMSSTLTLTKDEYERHNSYTCEATHKTSTSPIVKSFNRNEC
notes: Mouse IgG2a; Used as hybridoma supernatant or as purified recombinant antibody; also called CXIIG6 hybridoma supernatant; CXIIG6 SN
B1: no binding (EGFR:Fc).

B2: H19K12 (antibody, V domains shown)
VH: EVQLVESGGGLVQPGGSLKLSCAASGFTFSDAWMDWVRQSPEMGLEWVAEIRSKANNHATFYAESVKGRFTISRDDSKSSVYLQMNSLRAEDTGIYYCTRVKVGFDNWGQGTTLTVSS
VL: DIQMTQSPSSLSASVGDRVTITCRASENIYSNLAWYQQKDGKSPQLLVHAATNLADGVPSRFSGSGSGTQYSLTISSLQPEDFGSYYCQHFWGTPRTFGGGTKLEIKR
notes: Humanized human IgG1/kappa; also called hCXIIG6 variant H19K12
In the case of B2, the Ki [1] is reported as 0.754 nM, the IC50 [2] is reported as 1.28 nM and the binding result [3] is reported as “no binding (tested: 500 ng/ml)”. B2: no binding (tested: 500 ng/ml) [4]; no binding (tested: 500 ng/ml) [5]; no binding (tested: 500 ng/ml) [6]. B2: no binding (tested: 500 ng/ml) [7]; no binding (tested: 500 ng/ml) [8].

B3: Chimeric CXIIG6 IgG1 (antibody)
heavy: not shown
light: DIQMTQSPASLSVSVGETVTITCRASENIYSNLAWYQQKQGKSPQLLVHAATNLADGVPSRFSGSGSGTQYSLKINSLQSEDFGSYYCQHFWGTPRTFGGGTKLEIKRTVAAPSVFIFPPSDEQLKSGTASVVCLLNNFYPREAKVQWKVDNALQSGNSQESVTEQDSKDSTYSLSSTLTLSKADYEKHKVYACEVTHQGLSSPVTKSFNRGEC
With B3 the Ki [1] was 0.874 nM, the IC50 [2] was 1.48 nM and the binding result [9] was “no binding”. B3: binds (pTG17983); binds (pTG18036).

B4: human CSF1 1-444 (Geneart) (ligand)
chain: EEVSEYCSHMIGSGHLQSLQRLIDSQMETSCQITFEFVDQEQLKDPVCYLKKAFLLVQDIMEDTMRFRDNTPNAIAIVQLQELSLRLKSCFTKDYEEHDKACVRTFYETPLQLLEKVKNVFNETKNLLDKDWNIFSKNCNNSFAECSSQDVVTKPDCNCLYPKAIPSSDPASVSPHQPLAPSMAPVAGLTWEDSEGTEGSSLLPGEQPLHTVDPGSAKQAPPRSTCQSFEPPETPVVKDSTIGGSPQPRPSVGAFNPGMEDILDSAMGTNWVPEEASGEASEIPVPQGTELSPSRPGGGSMQTEPARPSNFLSASSPLPASAKGQQPADVTGTALPRVGPVRPTGQDWNHTPQKTDHPSALLRDPPEPGSPRISSLRPQGLSNPSTLSAQPQLSRSHSSGSVLPLGELEGRR
modifications: biotinylated with Biotin-NHS in the assay of
notes: also called biotinylated CSF-1
B4: binds [10].
